Reference: article PMC3470543, “Effects of the Missense Mutations in Canine BRCA2 on BRC Repeat 3 Functions and Comparative Analyses between Canine and Human BRC Repeat 3” (PLoS ONE, 2012)
Numbering of substitutions follows the chain as printed.

B1: Gal4-DBD-fused wild-type canine BRC3 [canine] / VP16 transactivation domain-fused canine RAD51 [canine] (parent complex)
chain 1: GQNIKDFDTFYLSFQTASRKNIRVSKESLNKARSLLNQKWTEEELNNFSDSLNSELLPGIDIKKTDISNHEVI
chain 2: MAMQMQLEANADTSVEEESFGPQPISRLEQCGINANDVKKLEEAGFHTVEAVAYAPKKELISIKGISEAKADKILTEAAKLVPMGFTTATEFHQRRSEIIQITTGSKELDKLLQGGIETGSITEMFGEFRTGKTQICHTLAVTCQLPIDRGGGEGKAMYIDTEGTFRPERLLAVAERYGLSGSDVLDNVAYARGFNTDHQTQLLYQASAMMVESRYALLIVDSATALYRTDYSGRGELSARQMHLARFLRMLLRLADEFGVAVVITNQVVAQVDGAAMFAADPKKPIGGNIIAHASTTRLYLRKGRGETRICKIYDSPCLPEAEAMFAINADGVGDAKD
B2: Gal4-DBD-fused wild-type canine BRC3 [canine] / VP16 transactivation domain-fused human RAD51 [human] (parent complex)
chain 1: B1 chain 1
chain 2: B1 chain 2 with S62N, T76A, G194A

Variants of: B1
Assay: mammalian two-hybrid assay; HeLa cells; luciferase activity determined 48 h after transfection; n = 3; read off a plot

response | Variant
~3.5 Firefly/Renilla | chain 1 GQNIKDFDTFYLSFQPASRKNIRVSKESLNKARSLLNQKWTEEELNNFSDSLNSELLPGIDIKKTDISNHEVI [chain 1 T16P]
~120 Firefly/Renilla | chain 1 GQNIKDFDTFYLSFQTASRKNIRVSRESLNKARSLLNQKWTEEELNNFSDSLNSELLPGIDIKKTDISNHEVI [chain 1 K26R]

Variants of: B2
Assay: as above

response | Variant
~2.2 Firefly/Renilla | chain 1 GQNIKDFDTFYLSFQPASRKNIRVSKESLNKARSLLNQKWTEEELNNFSDSLNSELLPGIDIKKTDISNHEVI [chain 1 T16P]
~34 Firefly/Renilla | chain 1 GQNIKDFDTFYLSFQTASRKNIRVSRESLNKARSLLNQKWTEEELNNFSDSLNSELLPGIDIKKTDISNHEVI [chain 1 K26R]
